Test results as given in article PMC7913688, “Human Rev1 relies on insert-2 to promote selective binding and accurate replication of stabilized G-quadruplex motifs”.
Changes are numbered by the printed parent chain.

Key:
[1] = molecular target: T1, hRev1 330-833 polymerase core (human, UniProt Q9UBZ9 330-833); test: fluorescence polarization; 100 mM KCl; Fluorescence polarization: 1 nM FAM-DNA, 100 mM KCl or LiCl; DNA annealed in 50 mM HEPES pH 7.5; full buffer as in cited ref 17, temperature not stated. Footprinting: 50 mM HEPES pH 7.5, 100 mM KCl, 10 uM protein, 30 uM ssDNA, room temperature; settings: protein: recombinant
T1 sequence: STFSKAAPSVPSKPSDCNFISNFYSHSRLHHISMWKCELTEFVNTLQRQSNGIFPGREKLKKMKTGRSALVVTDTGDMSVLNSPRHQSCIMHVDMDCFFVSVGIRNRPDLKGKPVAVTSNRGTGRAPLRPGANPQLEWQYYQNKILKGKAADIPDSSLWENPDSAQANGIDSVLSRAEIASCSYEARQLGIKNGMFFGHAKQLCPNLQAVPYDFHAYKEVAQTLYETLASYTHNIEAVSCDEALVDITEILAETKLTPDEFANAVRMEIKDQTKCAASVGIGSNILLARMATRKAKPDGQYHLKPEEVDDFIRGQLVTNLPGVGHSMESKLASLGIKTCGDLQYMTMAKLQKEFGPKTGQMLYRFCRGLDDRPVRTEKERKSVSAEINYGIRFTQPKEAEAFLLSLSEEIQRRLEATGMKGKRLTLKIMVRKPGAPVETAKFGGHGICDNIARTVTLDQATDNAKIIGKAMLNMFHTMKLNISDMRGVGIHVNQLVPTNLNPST

[2] = molecular target: T1, hRev1 330-833 polymerase core; test: fluorescence polarization; 100 mM LiCl (text: 139 +/- 17); Fluorescence polarization: 1 nM FAM-DNA, 100 mM KCl or LiCl; DNA annealed in 50 mM HEPES pH 7.5; full buffer as in cited ref 17, temperature not stated. Footprinting: 50 mM HEPES pH 7.5, 100 mM KCl, 10 uM protein, 30 uM ssDNA, room temperature; settings: protein: recombinant; label: 5'-FAM; antiparallel G4 in K+
[3] = molecular target: T1, hRev1 330-833 polymerase core; test: fluorescence polarization; 100 mM KCl (text: 127 +/- 14); Fluorescence polarization: 1 nM FAM-DNA, 100 mM KCl or LiCl; DNA annealed in 50 mM HEPES pH 7.5; full buffer as in cited ref 17, temperature not stated. Footprinting: 50 mM HEPES pH 7.5, 100 mM KCl, 10 uM protein, 30 uM ssDNA, room temperature; settings: protein: recombinant; label: 5'-FAM; antiparallel G4 in K+
[4] = molecular target: T1, hRev1 330-833 polymerase core; test: fluorescence polarization; 100 mM LiCl; Fluorescence polarization: 1 nM FAM-DNA, 100 mM KCl or LiCl; DNA annealed in 50 mM HEPES pH 7.5; full buffer as in cited ref 17, temperature not stated. Footprinting: 50 mM HEPES pH 7.5, 100 mM KCl, 10 uM protein, 30 uM ssDNA, room temperature; settings: protein: recombinant; label: 5'-FAM
[5] = molecular target: T1, hRev1 330-833 polymerase core; test: fluorescence polarization; 100 mM KCl (text: 406 +/- 38); Fluorescence polarization: 1 nM FAM-DNA, 100 mM KCl or LiCl; DNA annealed in 50 mM HEPES pH 7.5; full buffer as in cited ref 17, temperature not stated. Footprinting: 50 mM HEPES pH 7.5, 100 mM KCl, 10 uM protein, 30 uM ssDNA, room temperature; settings: protein: recombinant; label: 5'-FAM; hybrid G4 in K+
[6] = molecular target: T1, hRev1 330-833 polymerase core; test: fluorescence polarization; 100 mM KCl (text: 1246 +/- 196); Fluorescence polarization: 1 nM FAM-DNA, 100 mM KCl or LiCl; DNA annealed in 50 mM HEPES pH 7.5; full buffer as in cited ref 17, temperature not stated. Footprinting: 50 mM HEPES pH 7.5, 100 mM KCl, 10 uM protein, 30 uM ssDNA, room temperature; settings: protein: recombinant; label: 5'-FAM
[7] = label: 5'-FAM on template, parallel G4 in 5' overhang 18 nt, 11 bp duplex

B1: TBA primer-template (mixed)
DNA 1: TGGTTGGTGTGGTTGGTATGAGATGAT
DNA 2: ATCATCTCATA
Kd ([1]; label: 5'-FAM on template, antiparallel G4 in 5' overhang 16 nt, 11 bp duplex): 165 ± 25 nM

B2: Myc 2/11 primer-template (mixed)
DNA 1: AGGGAGGGTGGGAAGGGTTATGAGATGAT
DNA 2: ATCATCTCATA
Kd [1, 7]: 45 ± 6 nM

B3: Myc 14/23 primer-template (mixed)
DNA 1: AGGGTGGGTAGGGTGGGTTATGAGATGAT
DNA 2: ATCATCTCATA
Kd [1, 7]: 59 ± 9 nM

AGGGCGGGGCCGGGGAGGGTATGAGATGAT (structured_DNA) [Rev1-prom ss G4]
Kd ([1]; label: 5'-FAM, parallel G4 (1:4:1 loops as stated) in K+): 13 ± 3 nM

B4: Non-G4 Rev1-prom primer-template (mixed)
DNA 1: AGCGCGCGGCCGGCGAGCGTATGAGATGAT
DNA 2: ATCATCTCATA
Kd ([1]; label: 5'-FAM on template, 5' overhang 19 nt, 11 bp duplex): 154 ± 30 nM

B5: Rev1-prom primer-template (mixed)
DNA 1: AGGGCGGGGCCGGGGAGGGTATGAGATGAT
DNA 2: ATCATCTCATA
Kd ([1]; label: 5'-FAM on template, parallel G4 in 5' overhang 19 nt, 11 bp duplex): 11 ± 2 nM

TGGTTGGTGTGGTTGGTATGAGATGAT (structured_DNA) [TBA ss G4]
Kd [2]: 140 ± 20 nM | Kd [3]: 130 ± 10 nM

AGCGGCGCGCGCTTTAGGAAAAGCGCGCGTTATGAGATGAT (ssDNA) [Non-G4 Bcl2 control ss]
Kd [4]: 750 ± 340 nM | Kd ([1]; label: 5'-FAM): 830 ± 310 nM

B6: Non-G4 Bcl2 primer-template (mixed)
DNA 1: AGCGGCGCGCGCTTTAGGAAAAGCGCGCGTTATGAGATGAT
DNA 2: ATCATCTCATA
Kd ([1]; label: 5'-FAM on template, 5' overhang 30 nt, 11 bp duplex): 660 ± 120 nM

AGGGGCGGGCGCTTTAGGAAAAGGGCGGGTTATGAGATGAT (structured_DNA) [Bcl2 1245 ss G4]
Kd ([1]; label: 5'-FAM, parallel G4 (13-nt loop) in K+): 76 ± 16 nM

B7: Bcl2 1245 primer-template (mixed)
DNA 1: B6 DNA 1 with C3G, C8G, C24G, C28G
DNA 2: ATCATCTCATA
Kd ([1]; label: 5'-FAM on template, parallel G4 in 5' overhang 30 nt, 11 bp duplex): 97 ± 20 nM

TGCTTGCTGTGCTTGCTATGAGATGAT (ssDNA) [Non-G4 TBA control ss]
Kd [4]: 310 ± 40 nM | Kd ([1]; label: 5'-FAM): 380 ± 40 nM

AGCGCGCTGTGCGAAGAGCGAATATGAGATGAT (ssDNA) [Non-G4 KRAS control ss]
Kd [4]: 1620 ± 800 nM | Kd ([1]; label: 5'-FAM): 840 ± 90 nM

B8: Non-G4 KRAS primer-template (mixed)
DNA 1: AGCGCGCTGTGCGAAGAGCGAATATGAGATGAT
DNA 2: ATCATCTCATA
Kd ([1]; label: 5'-FAM on template, 5' overhang 22 nt, 11 bp duplex): 1120 ± 80 nM

B9: KRAS 22RT primer-template (mixed)
DNA 1: B8 DNA 1 with C3G, C7G, C12G, C19G
DNA 2: ATCATCTCATA
Kd ([1]; label: 5'-FAM on template, parallel G4 in 5' overhang 22 nt, 11 bp duplex): 120 ± 10 nM

AGGGCGGTGTGGGAAGAGGGAATATGAGATGAT (structured_DNA) [KRAS 22RT ss G4]
Kd ([1]; label: 5'-FAM, parallel G4 in K+): 52 ± 10 nM

AGGGAGGGTGGGAAGGGTTATGAGATGAT (structured_DNA) [Myc 2/11 ss G4]
Kd ([1]; label: 5'-FAM, parallel G4 (1:1:2 loops) in K+): 22 ± 3 nM

AGCGCGCGGCCGGCGAGCGTATGAGATGAT (ssDNA) [Non-G4 Rev1-prom control ss]
Kd [4]: 260 ± 120 nM | Kd ([1]; label: 5'-FAM): 370 ± 70 nM

TTGGGTTAGGGTTAGGGTTAGGGATATGAGATGAT (structured_DNA) [hTelo-4 ss G4]
Kd [5]: 410 ± 40 nM

B10: hTelo-4 primer-template (mixed)
DNA 1: TTGGGTTAGGGTTAGGGTTAGGGATATGAGATGAT
DNA 2: ATCATCTCATA
Kd ([1]; label: 5'-FAM on template, hybrid G4 in 5' overhang 24 nt, 11 bp duplex): 840 ± 50 nM

TTGCGTTAGCGTTAGCGTTAGCGATATGAGATGAT (ssDNA) [Non-G4 Telo-4 control ss]
Kd [4]: 920 ± 120 nM | Kd [6]: 1200 ± 200 nM
